One substance from IntAct's records for PubMed 30458687 can be followed below.

Experiment [1] deals with apoa1_human APOA1 (UniProt P02647).
Experiment [2] shares this target. This is another data set of the same source.

apoa1_human APOA1, sequence (P02647 whole entry): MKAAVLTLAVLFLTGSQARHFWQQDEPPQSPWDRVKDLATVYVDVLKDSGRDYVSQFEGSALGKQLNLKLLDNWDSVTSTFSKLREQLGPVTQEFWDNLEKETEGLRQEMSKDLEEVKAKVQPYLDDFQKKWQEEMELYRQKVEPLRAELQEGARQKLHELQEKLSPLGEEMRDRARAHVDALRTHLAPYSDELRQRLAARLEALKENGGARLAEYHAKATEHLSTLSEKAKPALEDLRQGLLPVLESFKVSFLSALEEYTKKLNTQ

Consider “Phospholipid-transporting ATPase ABCA1 (Homo sapiens), O95477 K939M;K1952M”, for which the “effect of a mutation on the interaction” value in experiment [1] and in experiment [2] was “disrupting interaction strength” in each case.
